Data from a protein production outcome set (Wang et al. 2014).

Test: label from the status in PepcDB records
For “MWLRSYRITFSCLTRLKTYRSSWKKLYSTSQTVDSKEVKTFQALAHSWWDEQGKFAPLHSMNDLRVPFIRDNLLKTSTNHDPGKPLSGMKILDVGCGGGLLTEPLGRLGASVVGIDPVAENIKIAQHHKSFDPVLDKRIQYRVCSLEETLNENAECFDAVVASEVVEHVNNLEMFIQCCYQVLKPGGSLFITTVNKTQLSYVLGIVFSEQIAGIVPKGTHTWEKFVSPEKLESILEPNGLSVETVAGMVYNPFSGYWHWTENTSLNYAAHAVRARAQEHLEPAESA”, the protein production was “failed”.
In the case of “MWNGREYMSEPASPEKKVIIIAGPNGAGKTTFAEEFLPQEAQCLTFINADLIAAGLAPFEPEQAAFRAGRLMLEEIYNHAQRGQNFAFETTLSGRSYARLIPTWQAQSYIVKLFFLQLLSPELAIARVAQRVRAGGHHVPEAIIRRRFAAGLHNLETLYKLIVDEWVCYDNSGNEPVLINKGGKLLEHHHHHH”, the protein production is reported as “not failed”.
For “MWPNGSSLGPCFRPTNITLEERRLIASPWFAASFCVVGLASNLLALSVLAGARQGGSHTRSSFLTFLCGLVLTDFLGLLVTGTIVVSQHAALFEWHAVDPGCRLCRFMGVVMIFFGLSPLLLGAAMASERYLGITRPFSRPAVASQRRAWATVGLVWAAALALGLLPLLGVGRYTVQYPGSWCFLTLGAESGDVAFGLLFSMLGGLSVGLSFLLNTVSVATLCHVYHGQEAAQQRPRDSEVEMMAQLLGIMVVASVCWLPLLVFIAQTVLRNPPAMSPAGQLSRTTEKELLIYLRVATWNQILDPWVYILFRRAVLRRLQPRLSTRPRRVSLCGPAWSTVARSRLTATSASRVQAILVPQPPEQLGLQA”, the protein production was “failed”.
In the case of “MWQNFYLTTLKLSQYTQEEKPILPADNMDPRALASVHAWEHGDFMCKGYIQSRLSDPLYNVYSNVETSNELWDSLDKKYQTKDAGSQKYAAAKFLDYKMVDSRPMMVQVEELTCLFHDI”, the protein production is reported as “not failed”.
With “MWQQHLAILPILVPLLAALLQLLPWGDRPQPKRRAIGLLSSILTLILTIALLVQVNQDQMIVYALGNWSAPFGIVLMVDKLSALMMLVTAILALPVLIYGCYAEDNLGSHFQALFQFQIMGIMGAFATGDIFNLFVFFEVLLISSYALLMHGGGKFRLRTTLHYVLLNLLGSALFLISVGTLYGVTGTLNMADLATQVQQLSGDQAALAKAGGMMLLIVFGIKAAILPLHFWLPQAYSTTTGVVAALFAIMTKVGVYAIVRVYTLIFGPEANELALIAHDWLWVMGLVTMLAGAIGIIGARDLRLLVAYLVVISIGTLIATYSLNGIATTGAMLFYLIHSTFITGALFLLADLIAFERGKTASRIVSGKKMANHSAYSVMFLIAAIAIIGLPPLSGFVGKLMIMESASPTGASFWLWGAMLGATLIMLISVTRAGSKMLWHTLSGKANEQSAPLGKRAAVVMLLSLSVVMTLFASPIRNYTDDVAEQLYDIDQYPSRVLTKGAE” the protein production was “failed”.
In the case of “MWRDTMSAFLGELIGTALLIVLGGGVCAGVSLKKSFAKDSGWIVITMGWGLAVAVAAYAVGSISGAHLNPALTIGLAFKGAFPWSDVPGYIVAQMIGAIIGAVIVYLHYLPHWKETEDPGTKLGVFATGPAIPNTFANLLSEMIGTFVLVFGILAIGANKFADGLNPFIVGFLIVSIGLSLGGTTGYAINPARDLGPRIAHFFLPIAGKGGSNWKYAWIPVVGPILGGSLAGLFHQVVFEGKQNSALIYVIIATVIVLAISYMTSKKSGSNTNSRKVA”, the protein production is reported as “failed”.
In the case of “MWRRSLTESHSNELRLELTSRIVSAYLSRNVIAPSELPHLIQQTYGSLGKTSEPTKTPATVEEQRPAVPIKKSVTDDFIVCLEDGKSFKSLKRHLMAKYALTPEQYREKWKLPADYPMVAPNYARKRSELARATGLGKKSAANLSPSLQAVRSA”, the protein production is reported as “not failed”.
For “MWRSLLLPTCSHALIELHFFSHYCTIMMNQNTQPTNNLKDKKITYNFNKLQKRLRRNVGNAIANFNMIEAGDKVMVCLSGGKDSYTLLDILLNLKLSAPINFDIVAVNLDQKQPGFPEHILPEYLASIGVEYKIVQENTYGIVKEKIPEGKTTCSLCSRLRRGILYRTATELGATKIALGHHRDDMLETLFLNMFYNGKLKSMPPKLISDDAKHIVIRPLAYCKEKDIEKYAEAKQFPIIPCNLCGSQPNLQRQVVKEMLQNWDRQYPGRIETMFSALQNVTPSHLCDTQLFNFKAVKHGEMINGIEGDIAFDKMDIPMTLNIQEEDEKQAYTQNGTIQFKAV”, the protein production was “failed”.
In the case of “MWSIFRKEIAVFLNSLIAYLVILVFLTFIGVFMWVLPASSILDYGYAEMDTLFSYGPLAFLLLIPAITMRSFAEEKKDGTIELLLTKPLSDWQLLLGKYLSACTLVALALIPTVLYYISVYQLGKPVG”, the protein production is reported as “failed”.
In the case of “MWSILALGAVERCIHHIIDLDAITRIQTNQLQGKLLRVVTDSPQLSVDVFFDENRVRLEPTVTGQSQTPSIFEQRPFDPQYKMTDATATLHVKNIVELVKLLFNDPDQIGNIPVEGDYHLLQDIQKIMQQSEPDLAAHLSPWIGPALAHELGKIRLAPQQLKRSMQSHLFFVEDALKEDSGLFAPRWQMDDLQHATRQLNQELDRVEARLQQLNLQLQSDN”, the protein production is reported as “failed”.
For “MWWGVAAALLANVLYSTGFVLEKRALASLPEVDIRRPARLLRLVLGSPLWIGGSLSLAAGFGAQLAVYRTLPIAAAQGIFVSGLVLLVLLSARLLGEETTGRERYALGAILAALLMVVLSLREGSDKVSRSAPVPLILLVCVPSLAMGVWLYGSAERRARHRHRMPTTGVEYGVAVGLLYGVSSLAIKGVSSYLTPADGLGGAVVGLLRSPYPYLLLFTGVFGLVMSQAALQRCRASLIVPVCTTVTCLFTAVLGTLAFGEALPHEPLRLALRLAGTALAVSVLLAMPKHDTAPQPSAAPKELTPP”, the protein production was “failed”.
In the case of “MWWSGLASQSKAQETPGRRGLEERKQLIMEIYNSLRSADIASIEFEGPEIAVYIRNPKFIVENENVVKDLARKLRKRIVVRTHPKSRKSMEYTIKFIRENVPPDVGIVDIQFDDVLGEVRVIAEKPGKLMGRGKVFRNLVLAETGWRLEVYRKPLLQSGLLDSVLRHLQRHAEERRRALRDIGERIFRDTLIGTRHVRVVGLGSFGEVGRSAILVDTGESKVLLDAGLSPSGYGPDSYPYYWSPEFRVDELDAVVISHAHLDHVGTLPLLFKYGFRGPVYATPPTRDIMIIVLRDLINLMRKAQGEPPFEPRDVEKALTRLIPVNYNTVTDVAPDIKMTFINAGHILGSSMVHLHIGQGLYNILYTADFKFYRIKNDRSTRLLPPAEYSFQRVEALIMEATYGSKETQPRAEAEEELINLVNKVYKRGGKLLIPVMAVGRGQEILVVLNEALRSGKIPEIPIYVDGMVYEVTAVYTNYPELLVKPIRDRILKQGENPFEGPTTVYVTDHYKRDEAMYSDKPAIILSTSGMMNGGPIVEYFKYLADDPRNALAFVSYQAPGTLGRRLQSGEREIELEMDGGIRRIKVNMEIVSIEGFTGHSTRGELLSFLRRLNPKPRNIVLNHGEPSAIAALAHTVKTGWSKLGFESPPIIEAPENLEGVRLYPRNLKMKLALQHS”, the protein production is reported as “failed”.
In the case of “MYADYEYYEKEYLLGKEPVIAERNYLYYEKQARAEVDKITFNRCRGLDEIPEEVKDCVCDVAEYLCKYDRYSGSDAPGPLASFGNDGETGTYDLSNSIYTESKRKEKIQETLYKHLADTGLLYSGR”, the protein production is reported as “failed”.
For “MYCKGRREREAYIVVKIDLITGFLGSGKTTFIRKYVKYLVDKGYNVGILENDYGAVNVDMMLLQDLMGPNCHAEMVAGGCGEDCHKRRFKTKLIAMGMSGYDRVIVEPSGIFDVDEFFDTLHEEPLDRWYEVGSIIAIVDAKLDTDMSRQSRYVLASEIANCGALVMSKTSGVSEDEISHTKEFVNKTLEEFQCRRRFDGDVITKAWELFGSEDYERFMSVGYKLNDFTKLWFKQSDVYSSVYIMNRNFTREQLVDIVNRVFSDKDCGDVFRIKGFFSVEQDSWLELNATVHKTEIKPIDKGQKIIIIIGSDLMEDKIKQYFEE”, the protein production was “failed”.
With “MYDMVREKTYYFMIVERITIMTEKMTRMTQFVKEEIANAITHGIGAILSIPALIILIIHASKHGTASAVVAFTVYGVSMFLLYLFSTLLHSIHHPKVEKLFTILDHSAIYLLIAGTYTPFLLITLRGPLGWTLLAIIWTLAIGGIIFKIFFVRRFIKASTLCYIIMGWLIIVAIKPLYENLTGHGFSLLLAGGILYSVGAIFFLWEKLPFNHAIWHLFVLGGSAMMFFCVLFYVLPTAS” the protein production was “failed”.
